Experimental data reported in US8889621B2, “Inhibiting binding of FGF23 to the binary FGFR-Klotho complex for the treatment of hypophosphatemia” (New York University, priority 2009, dated 2014).
“Also recorded” adds a separate entry of the source. Peptide text beside a SMILES is read from it.

Experiments:
[1] = system: tyrosine phosphorylation of FRS2α and downstream activation of MAP kinase cascade; assay: Phosphorylation of FRS2α and 44/42 MAP kinase in HEK293-Klotho cells; type: cell-based; settings: for inhibition of FGF23-induced phosphorylation of FRS2α and MAP kinase activation: FGF23^28-251 1 nM, 10 min
Procedure: Subconfluent HEK293-Klotho cells (Kurosu et al., “Regulation of Fibroblast Growth Factor-23 Signaling by Klotho,” J Biol Chem 281(10):6120-6123 (2006), which is hereby incorporated by reference in its entirety) were serum starved for 16 h and then stimulated for 10 min with either FGF23^28-251 (0.33 to 10 nM) or FGF23^180-251 (0.76 to 76.3 nM). In parallel experiments, cells were stimulated with FGF23^28-251 (1 nM) alone or with FGF23^28-251 (1 nM) mixed with increasing concentrations of either FGF23^180-251 (0.76 to 76.3 nM) or FGF23^180-205 (0.1 to 10 μM). Cell stimulation with FGF2 (2.9 nM) alone or FGF2 (2.9 nM) mixed with increasing concentrations of FGF23^180-251 (0.76 to 76.3 nM) served as controls. Similarly, subconfluent cells of a CHO cell line stably expressing Klotho (Imura et al., “Secreted Klotho Protein in Sera and CSF: Implication for Post-translational Cleavage in Release of Klotho Protein from Cell Membrane,” FEBS Lett 565(1-3):143-147 (2004), which is hereby incorporated by reference in its entirety) were treated with either FGF23^28-251 (0.067 to 20 nM) or FGF23^28-200 (0.04 to 12 nM).
In a separate experiment, the biological activity of the bacterially expressed FGF23^28-251 protein was compared to that of FGF23^25-251 expressed in the mouse myeloma cell line NS0 (R&D Systems). Subconfluent HEK293-Klotho cells were serum starved, and then treated with either of the two FGF23 proteins.
After stimulation, the cells were lysed (Kurosu et al, “Suppression of Aging in Mice by the Hormone Klotho,” Science 309(5742):1829-1833 (2005), which is hereby incorporated by reference in its entirety), and cellular proteins were resolved on SDS-polyacrylamide gels, transferred to nitrocellulose membranes, and the protein blots were probed with antibodies to phosphorylated FGF receptor substrate-2α (FRS2α), phosphorylated 44/42 MAP kinase and non-phosphorylated 44/42 MAP kinase, and Klotho. Except for the anti-Klotho antibody (Kato et al., “Establishment of the Anti-Klotho Monoclonal Antibodies and Detection of Klotho Protein in Kidneys,” Biochemical Biophysical Res Communications 267(2):597-602 (2000), which is hereby incorporated by reference in its entirety), all antibodies were from Cell Signaling Technology.

[2] = system: NaPi-2A; assay: NaPi-2A protein abundance in apical brush border membrane of rat kidney; type: in vivo; settings: IV 0.1 μg kg body weight^−1, 3 h post injection, vs vehicle
Procedure: Immunoblot analysis of NaPi-2A and NaPi-2C protein abundance in renal cortex tissue and isolated brush border membrane vesicles (BBMV), and NaPi-2A immunostaining of renal tissue were performed as described (Bacic et al., “Activation of Dopamine Dl-like Receptors Induces Acute Internalization of the Renal Na^+/phosphate Cotransporter NaPi-IIa in Mouse Kidney and OK cells,” Am J Physiol Renal Physiol 288(4):F740-747 (2005), Loffing et al., “Renal Na/H Exchanger NHE-3 and Na—PO4 Cotransporter NaPi-2 Protein Expression in Glucocorticoid Excess and Deficient States,” J Am Soc Nephrol 9(9):1560-1567 (1998), Moe et al., “Dietary NaCl Modulates Na(+)-H+ Antiporter Activity in Renal Cortical Apical Membrane Vesicles,” Am J Physiol 260(1 Pt 2):F130-137 (1991), which are hereby incorporated by reference in their entirety).
For immunoblot, rat kidney cortices were dissected and homogenized, and BBMV were isolated (Loffing et al., “Renal Na/H Exchanger NHE-3 and Na—PO4 Cotransporter NaPi-2 Protein Expression in Glucocorticoid Excess and Deficient States,” J Am Soc Nephrol 9(9):1560-1567 (1998), Moe et al., “Dietary NaCl Modulates Na(+)-H+ Antiporter Activity in Renal Cortical Apical Membrane Vesicles. Am J Physiol 260(1 Pt 2):F130-137 (1991), which are hereby incorporated by reference in their entirety). […]

**Q.** For `CSCC[C@H](NC(=O)[C@H](CCCNC(=N)N)NC(=O)[C@H](C)NC(=O)[C@H](CCCNC(=N)N)NC(=O)[C@@H]1CCCN1C(=O)[C@H](CCCCN)NC(=O)[C@H](CC(C)C)NC(=O)[C@@H](NC(=O)[C@H](CC(N)=O)NC(=O)[C@H](CC(C)C)NC(=O)[C@@H]1CCCN1C(=O)[C@H](CC(=O)O)NC(=O)[C@H](CCCNC(=N)N)NC(=O)[C@H](CCC(=O)O)NC(=O)[C@H](CO)NC(=O)[C@H](CC(=O)O)NC(=O)[C@H](CC(=O)O)NC(=O)[C@H](CCC(=O)O)NC(=O)[C@H](C)NC(=O)[C@@H](N)CO)C(C)C)C(=O)N[C@H](C(=O)N1CCC[C@H]1C(=O)N[C@@H](C)C(=O)N1CCC[C@H]1C(=O)N[C@@H](C)C(=O)N[C@@H](CO)C(=O)O)[C@@H](C)O` [FGF23^180-205] (H-SAEDDSERDPLNVLKPRARMTPAPAS-OH; N-terminus and C-terminus assumed), which “inhibition of FGF23-induced phosphorylation of FRS2α and MAP kinase activation” value [1] is on record?
**A.** inhibited, in a dose-dependent fashion

B1: FGF23^28-251: human FGF23 (A28 to I251), bioactive full-length ligand expressed in E. coli (protein, listed as Homo sapiens)
chain: ASPLLGSSWGGLIHLYTATARNSYHLQIHKNGHVDGAPHQTIYSALMIRSEDAGFVVITGVMSRRYLCMDFRGNIFGSHYFDPENCRFQHQTLENGYDVYHSPQYHFLVSLGRAKRAFLPGMNPPPYSQFLSRRNEIPLIHFNTPIPRRHTRSAEDDSERDPLNVLKPRARMTPAPASCSQELPSAEDNSPMASDPLGVVRGGRVNTHAGGTGPEGCRPFAKFI
**Q.** Which “NaPi-2A protein expression in the apical brush border membrane” value [2] does the source give for B1 here?
**A.** decrease; also recorded: diminished

B2: FGF23^180-251: 72-amino acid C-terminal tail of human FGF23 (S180 to I251), expressed in E. coli (protein, listed as Homo sapiens)
chain: SAEDDSERDPLNVLKPRARMTPAPASCSQELPSAEDNSPMASDPLGVVRGGRVNTHAGGTGPEGCRPFAKFI
**Q.** How did the “inhibition of FGF2-induced phosphorylation of FRS2α and MAP kinase activation” value ([1]; FGF2 2.9 nM) turn out when B2 was run?
**A.** failed to inhibit

**Q.** And the “inhibition of FGF23-induced phosphorylation of FRS2α and MAP kinase activation” value [1]?
**A.** inhibited, in a dose-dependent fashion

**Q.** What about the “FGFR activation (FRS2α and 44/42 MAP kinase phosphorylation as readouts)” value ([1]; peptide alone / with FGF23) of the same molecule?
**A.** had no activity alone; also recorded: functioned as an antagonist

**Q.** And the “NaPi-2A protein expression in the apical brush border membrane” value [2]?
**A.** increased
